Measured values published in US11814447B2, “Peptide ligands for binding to EphA2” (BICYCLERD LIMITED, priority 2018, dated 2023).
Starred links: 1 amine or outer side, 2 acyl side, 3 side chain; linkers in the order of their positions; H or OH if unused. Positions of bridges follow the written chain, without caps; N, C: chain ends. Non-standard residues stand in square brackets, D forms with d. Primed or numbered codes have the meaning given here. No end group written: not given here. TBMB′ = 1,3,5-tris(bromomethyl)benzene, 1,3,5-tris(methylene)benzene core, three thioethers to Cys; 4BenzylPro = 4-benzyl-pyrrolidine-2-carboxylic acid; Dip = N[C@H](C(=O)O)C(c1ccccc1)c1ccccc1; 1Nal = N[C@@H](Cc1cccc2ccccc12)C(=O)O; TBMB = c1c(C[*:1])cc(C[*:3])cc1C[*:2]; Ala(cPr) = N[C@@H](CC1CC1)C(=O)O; hArg = N=C(N)NCCCC[C@H](N)C(=O)O; Gly(cPr) = N[C@H](C(=O)O)C1CC1; Cba = N[C@@H](CC1CCC1)C(=O)O; Tle = CC(C)(C)[C@H](N)C(=O)O; Ac5c = NC1(C(=O)O)CCCC1; Ac4c = NC1(C(=O)O)CCC1; Ac3c = NC1(C(=O)O)CC1; Aib = CC(C)(N)C(=O)O; Sar = CNCC(=O)O

target: T1, Human EphA2 (Ecto) (Human, UniProt P29317 24-537); experiment: FP competition, tracer Compound 18
T1 construct: extracellular domain
Method: Peptides without a fluorescent tag were tested in competition with a peptide with a fluorescent tag and a known Kd (Table 2). Peptides were diluted to an appropriate concentration in assay buffer as described in the direct binding assay with a maximum of 5% DMSO, then serially diluted 1 in 2. […] Measurements were conducted as for the direct binding assay, however the gain was determined prior to the first measurement. Data analysis was in Systat Sigmaplot version 12.0 where the mP values were fit to a user defined cubic equation to generate a Ki value: […]

T1 sequence (P29317 24-537): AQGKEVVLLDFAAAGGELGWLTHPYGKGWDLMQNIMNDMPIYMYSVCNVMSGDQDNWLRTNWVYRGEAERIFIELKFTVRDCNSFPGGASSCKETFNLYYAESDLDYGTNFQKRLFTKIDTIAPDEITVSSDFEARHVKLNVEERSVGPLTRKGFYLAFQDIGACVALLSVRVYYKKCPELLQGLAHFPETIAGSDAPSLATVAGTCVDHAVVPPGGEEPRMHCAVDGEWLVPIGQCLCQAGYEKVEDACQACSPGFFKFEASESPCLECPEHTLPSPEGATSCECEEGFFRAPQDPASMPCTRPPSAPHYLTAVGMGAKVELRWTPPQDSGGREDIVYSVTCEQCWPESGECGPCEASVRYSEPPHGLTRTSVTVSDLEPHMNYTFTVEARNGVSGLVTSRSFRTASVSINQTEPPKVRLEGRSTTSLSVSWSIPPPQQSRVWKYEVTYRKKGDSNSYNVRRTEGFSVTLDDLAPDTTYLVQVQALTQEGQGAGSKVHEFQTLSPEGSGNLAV

Compared with Ac-[Sar][Sar]A[dD]VTCP[1Nal]GPFWCPVNRPGC (linker 7-14-21 via TBMB′) [Bicycle Compound 170], Ac-[Sar][Sar]A[dD]VTC[Ac5c]WGPFWCPVNRPGC (linker 7-14-21 via TBMB′) [Bicycle Compound 167] is 230-fold higher in Ki: 0.6 nM for the first, 138 nM for the second.

Going from Ac-[Sar][Sar]A[dD]VTCPWGPFWCPVNR[Aib][dD]C (linker 7-14-21 via TBMB′) [Bicycle Compound 177] to Ac-[Sar][Sar]AHDVPCPWGPFWCPVNRPGC (linker 8-15-22 via TBMB) [Bicycle Compound 193], the Ki falls from 4.43 nM to 0.59 nM (7.5-fold).

Going from [Sar][Sar]AHEVPCPWGPFWCPVNRPGC (linker 8-15-22 via TBMB) [Bicycle Compound 207] to Ac-[Sar][Sar]A[dD]DVPCPWGPFWCPVNRPGC (linker 8-15-22 via TBMB) [Bicycle Compound 200], the Ki rises from 1.3 nM to 4.1 nM (3.2-fold).

First: [Sar][Sar]A[dA]DVPCPWGPFWCPVNRPGC (linker 8-15-22 via TBMB) [Bicycle Compound 199]
Second: [Sar][Sar]AHDAPCPWGPFWCPVNRPGC (linker 8-15-22 via TBMB) [Bicycle Compound 214]
The Ki of the first is 6.7-fold lower: 3.35 nM for the first, 22.5 nM for the second.

Going from [Sar][Sar]AHAVPCPWGPFWCPVNRPGC (linker 8-15-22 via TBMB) [Bicycle Compound 205] to Ac-[Sar][Sar]AADVPCPWGPFWCPVNRPGC (linker 8-15-22 via TBMB) [Bicycle Compound 195], the Ki falls from 1.8 nM to 1.01 nM (1.8-fold). The second binds more tightly here.

Compared with [Sar][Sar]AHDVACPWGPFWCPVNRPGC (linker 8-15-22 via TBMB) [Bicycle Compound 218], [Sar][Sar]AH[dE]VPCPWGPFWCPVNRPGC (linker 8-15-22 via TBMB) [Bicycle Compound 208] is 1.6-fold higher in Ki: 1.27 nM for the first, 2 nM for the second. The first binds more tightly here.

Going from [Sar][Sar]AH[dA]VPCPWGPFWCPVNRPGC (linker 8-15-22 via TBMB) [Bicycle Compound 206] to [Sar][Sar]AHDV[dA]CPWGPFWCPVNRPGC (linker 8-15-22 via TBMB) [Bicycle Compound 219], the Ki rises from 8.3 nM to 15 nM (1.8-fold). The first binds more tightly here.

Compared with [Sar][Sar]AHD[dA]PCPWGPFWCPVNRPGC (linker 8-15-22 via TBMB) [Bicycle Compound 215], AHDVPCP[1Nal]GPFWCP[Tle]NRPGC (linker 6-13-20 via TBMB) [Bicycle Compound 190] is 37-fold lower in Ki: 26 nM for the first, 0.7 nM for the second. The second binds more tightly here.

First: ADVHCPWG[Aib]FWCPVNRPGCA (linker 5-12-19 via TBMB′) [Bicycle Compound 153]
Second: Ac-[Sar][Sar]ADVTCPWGPFWCPVNRPGC (linker 7-14-21 via TBMB′) [Bicycle Compound 157]
The Ki of the first is 1.8-fold lower: 0.51 nM for the first, 0.91 nM for the second. The first binds more tightly here.

Going from Ac-[Sar][Sar]A[dD]VTCPWGPNWCPVNRPGC (linker 7-14-21 via TBMB′) [Bicycle Compound 172] to Ac-[Sar][Sar][dH]DVPCPWGPFWCPVNRPGC (linker 7-14-21 via TBMB) [Bicycle Compound 224], the Ki falls from 3.96 nM to 1.09 nM (3.6-fold). The second binds more tightly here.

Going from Ac-[Sar][Sar]ADVHCPWGPFWCPVNRPGC (linker 7-14-21 via TBMB) [Bicycle Compound 148] to Ac-[Sar][Sar]A[dD]VTCPWGPFWCPLNRPGC (linker 7-14-21 via TBMB′) [Bicycle Compound 174], the Ki rises from 1.2 nM to 9.1 nM (7.6-fold). The first binds more tightly here.

Ac-[Sar][Sar]A[dD][dD]TCPWGPFWCPVNRPGC (linker 7-14-21 via TBMB′) [Bicycle Compound 159] and Ac-[Sar][Sar]A[dD]VTCPWG[Aib]FWCP[Tle]NR[Aib]GC (linker 7-14-21 via TBMB′) [Bicycle Compound 180] are within 1.5-fold of each other in Ki: 2.85 nM for the first, 3.83 nM for the second.

Compared with Ac-[Sar][Sar]H[dD]VPCPWG[Aib]FWCP[Tle]NR[Aib]GC (linker 7-14-21 via TBMB) [Bicycle Compound 270], Ac-[Sar][Sar]A[dD]VTC[Ac3c]WGPFWCPVNRPGC (linker 7-14-21 via TBMB′) [Bicycle Compound 165] is 120-fold higher in Ki: 1.52 nM for the first, 185 nM for the second. The first binds more tightly here.

Going from Ac-[Sar][Sar]A[dD][Gly(cPr)]TCPWGPFWCPVNRPGC (linker 7-14-21 via TBMB′) [Bicycle Compound 162] to Ac-[Sar][Sar]A[dD]VTCPWGP[hArg]WCPVNRPGC (linker 7-14-21 via TBMB′) [Bicycle Compound 171], the Ki rises from 2.55 nM to 4.88 nM (1.9-fold).

First: [dD]VTCPWGPFWCPVNRPGC (linker 4-11-18 via TBMB) [Bicycle Compound 185]
Second: Ac-[Sar][Sar]A[dD][Ala(cPr)]TCPWGPFWCPVNRPGC (linker 7-14-21 via TBMB′) [Bicycle Compound 161]
The Ki of the first is 2-fold lower: 2.17 nM for the first, 4.44 nM for the second.

Going from Ac-[Sar][Sar]A[dD]VTC[Ac4c]WGPFWCPVNRPGC (linker 7-14-21 via TBMB′) [Bicycle Compound 166] to Ac-[Sar][Sar]AD[Tle]TCPWGPFWCPVNRPGC (linker 7-14-21 via TBMB′) [Bicycle Compound 164], the Ki falls from 76.7 nM to 2.25 nM (34-fold). The second binds more tightly here.

Compared with Ac-[Sar][Sar]A[dD]VTCPWG[Aib]F[1Nal]CPVNR[Aib]GC (linker 7-14-21 via TBMB′) [Bicycle Compound 179], Ac-[Sar][Sar]H[dD]VPCPWG[Aib]F[1Nal]CPVNR[Aib]GC (linker 7-14-21 via TBMB) [Bicycle Compound 268] is 2.4-fold lower in Ki: 2.94 nM for the first, 1.24 nM for the second. The second binds more tightly here.

Going from ADVHCP[1Nal]GPFWCPVNRPGCA (linker 5-12-19 via TBMB) [Bicycle Compound 150] to AHDVPCP[1Nal]GPFWCPVNRPGC (linker 6-13-20 via TBMB) [Bicycle Compound 188], the Ki rises from 0.12 nM to 1.45 nM (12-fold). The first binds more tightly here.

Ac-[Sar][Sar]A[dD]VTCP[1Nal]G[Aib]FWCPVNR[Aib]GC (linker 7-14-21 via TBMB′) [Bicycle Compound 178] and Ac-[Sar][Sar]H[dD]VPCP[1Nal]G[Aib]FWCPVNR[Aib]GC (linker 7-14-21 via TBMB) [Bicycle Compound 266] are within 1.5-fold of each other in Ki: 2.4 nM for the first, 1.6 nM for the second.

Going from AHDVPCPWGPF[1Nal]CPVNRPGC (linker 6-13-20 via TBMB) [Bicycle Compound 189] to AHDVPCP[1Nal]G[Aib]FWCP[Tle]N[hArg]PGC (linker 6-13-20 via TBMB) [Bicycle Compound 191], the Ki rises from 1.3 nM to 3.1 nM (2.4-fold).

First: AHDVPCP[1Nal]GPFWCPVNRPGCA (linker 6-13-20 via TBMB′) [Bicycle Compound 187]
Second: [dD]VTCP[1Nal]G[Aib]F[1Nal]CP[Tle]NR[Aib]GC (linker 4-11-18 via TBMB′) [Bicycle Compound 186]
The Ki of the first is 4.2-fold lower: 0.32 nM for the first, 1.34 nM for the second. The first binds more tightly here.

Going from Ac-[Sar][Sar]A[dD][Cba]TCPWGPFWCPVNRPGC (linker 7-14-21 via TBMB′) [Bicycle Compound 160] to Ac-[Sar][Sar]A[dD]VTCP[1Nal]G[Aib]F[1Nal]CPVNR[Aib]GC (linker 7-14-21 via TBMB′) [Bicycle Compound 181], the Ki falls from 2.6 nM to 1.37 nM (1.9-fold).

Compared with Ac-[Sar][Sar]H[dD]VPCP[1Nal]G[Aib]F[1Nal]CPVNR[Aib]GC (linker 7-14-21 via TBMB) [Bicycle Compound 261], ADVHCP[Dip]GPFWCPVNRPGCA (linker 5-12-19 via TBMB) [Bicycle Compound 149] is 84-fold higher in Ki: 0.63 nM for the first, 52.8 nM for the second.

Going from AHDVPCP[1Nal]G[Aib]FWCP[Tle]NR[Aib]GC (linker 6-13-20 via TBMB) [Bicycle Compound 192] to Ac-[Sar][Sar]A[dD]VTC[4BenzylPro]WGPFWCPVNRPGC (linker 7-14-21 via TBMB′) [Bicycle Compound 168], the Ki rises from 1.75 nM to 5.03 nM (2.9-fold).
